Reference: US20230212266A1 (FRED HUTCHINSON CANCER CENTER, published 2023)
Numbering of substitutions follows the chain as printed.

How the values were obtained:
[1] = molecular target: T1, SARS-CoV-2 receptor binding domain (RBD) (SARS-CoV-2, UniProt P0DTC2 319-591); test: BLI: mAb on anti-human Fc probe, dipped in the antigen
[2] = molecular target: T1, SARS-CoV-2 receptor binding domain (RBD); test: BLI, mAb on anti-human Fc probe, antigen in solution
[3] = molecular target: T1, SARS-CoV-2 receptor binding domain (RBD); test: BLI: mAb on anti-human Fc probe, dipped in the antigen; remark: listed apart in the source
[4] = molecular target: T1, SARS-CoV-2 receptor binding domain (RBD); test: as above; remark: listed apart in the source
[5] = molecular target: T1, SARS-CoV-2 receptor binding domain (RBD); test: as above; remark: listed apart in the source

B1: CV2-50 (antibody, V domains shown)
VH: QVQLVESGGGVVQPGRSLRLSCAASGFTFSSYGMHWVRQAPGKGLEWVAVISYDGSNQYYADSVKGRFTISRDNSKNTLYLQMNSLRAEDTAVYYCAKDPTIFGVVLQIPRFDYWGQGTLVTVSS
VL: EIVLTQSPATLSLSPGERATLSCRASQSVSSYLAWYQQKPGQAPRLLIYDASNRATGIPARFSGSGSGTDFTLTISSLEPEDFAVYYCQQRSNWPPTFGQGTKLEIK
Question: Does B1 bind [1]?
Answer: no binding

B2: CV2-43 (antibody, V domains shown)
VH: QVQLVQSGAEVKKPGSSVKVSCKASGGTFSSYAISWVRQAPGQGLEWMGGIIPIFGTANYAQKFQGRVTITADESTSTAYMELSSLRSEDTAVYYCARAYSYDSSGYSPDYWGQGTLVTVSS
VL: EIVLTQSPATLSLSPGERATLSCRASQSVSSYLAWYQQKPGQAPRLLIYDASNRATGIPARFSGSGSGTDFTLTISSLEPEDFAVYYCQQRSNWPPKLTFGGGTKVEIK
notes: expressed as IgG
Question: Does B2 bind [2]?
Answer: no binding

B3: CV2-47 (antibody, V domains shown)
VH: QVQLVQSGAEVKKPGSSVKVSCKTSGGTFSNYAISWVRQAPGQGLEWMGGIIPIFGTANYAQKFQGRVTFTADESTSTAYMELSSLRSEDTAVFYCVSRIAAAADFDYWGQGTLVTVSS
VL: B2 VL with V29I, K97L
Question: Does B3 bind [3]?
Answer: no binding

B4: CV2-45 (antibody, V domains shown)
VH: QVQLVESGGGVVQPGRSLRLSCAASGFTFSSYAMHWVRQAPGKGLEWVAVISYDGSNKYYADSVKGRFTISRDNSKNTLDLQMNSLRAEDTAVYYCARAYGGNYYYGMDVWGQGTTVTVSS
VL: AIQLTQSPSSLSASVGDRVTITCRASQGISSALAWYQQKPGKAPKLLIYDASSLESGVPSRFSGSGSGTDFTLTISSLQPEDFATYYCQQFNNYPLTFGGGTKVEIK
Question: Does B4 bind [4]?
Answer: no binding

B5: CV2-44 (antibody, V domains shown)
VH: QVQLVQSGAEVKKPGASVKVSCKASGYTFISYGISWVRQAPGQGLEWMGWISGYNGNTNYAQKFQGRVTMTTDTSTSTAYMELRSLRSDDTAVYYCARVRIFGVVIIVDTAMVLDYWGQGTLVTVSS
VL: QSVLTQPPSVSAAPGQKVTISCSGSSSNIGNNYVSWYQQLPGTAPKLLIYENNKRPSGIPDRFSGSKSGTSATLGITGLQTGDEAHYYCGTWDSSLSAGVFGGGTKLTVL
Question: Does B5 bind [5]?
Answer: no binding
